# Test results published in patent publication US20190338026A1 (University of Texas, published 2019).
# T1: LAIR1 on LAIR1 reporter cells (human, UniProt Q6GTX8 22-165, limits assumed)
# T1 chain: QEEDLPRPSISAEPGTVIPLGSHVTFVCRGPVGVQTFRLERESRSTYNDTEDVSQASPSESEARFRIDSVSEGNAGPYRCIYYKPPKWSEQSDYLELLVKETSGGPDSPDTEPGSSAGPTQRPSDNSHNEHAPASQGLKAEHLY
# T2: human LAIR1 extracellular domain (ECD) protein with 6 HIS tag at the C-terminus (human, UniProt Q6GTX8 22-165)
# T2 construct: Produced recombinantly in HEK293 cells; the whole entry is named here; also called LAIR1 ECD; LAIR1-ECD
# T2 chain: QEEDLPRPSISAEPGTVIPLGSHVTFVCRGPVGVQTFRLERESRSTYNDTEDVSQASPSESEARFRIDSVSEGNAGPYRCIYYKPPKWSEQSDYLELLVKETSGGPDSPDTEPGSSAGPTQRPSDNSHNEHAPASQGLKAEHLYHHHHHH
# T3: recombinant LAIR1 (human, UniProt Q6GTX8 22-165, limits assumed)
# T3 construct: also called LAIR1 (Octet analyte)
# T3 chain: T1 chain
# B1: LA-94 (antibody, V domains shown)
# VH: EQSLEESEGRLVTPGTPLTLTCTASGFSLSGYHMSWVRQAPGKGLEYIGYISERGTSYYANWAKGRFTVSKSSSSTVVLSIISPTAEDTATYFCARYGGGDSAFILWGPGTLVTISS
# VL: ELVMTQTPASVSGPVGGTVTIKCQASHNIDNSLAWYQQKPGQPPKLLIYKASTLASGVSSRFKGSGSGTEYTLTISDLECADAATYFCQGTIGLNSGCAFGGGTEVEIK
# notes: Rabbit monoclonal IgG; Called an agonist antibody; also called mAb LA-94; agonist Ab LA-94
# B2: LA-192 (antibody, V domains shown)
# VH: EQSLEESGGRLVTPGTPLTLTCTASGFSLSSYYMTWVRQAPGKGLEWIGYMHTGGGVVYASWATGRFTISRTSTTVDLKITSPTTEDTATYFCARSHAGYSTINRLDLWGVGTLVTISS
# VL: ELDLTQTPSSVSAAVGGTVTISCQSSPSVYTNNLSWFQQKPGQPPKLLIYDASKLESGVPSRFRGSGSGTQFTLTISDVQCDDAATYYCAGAYLSDSDTTFGGGTELEIK
# notes: Rabbit monoclonal IgG; Called an agonist antibody
# B3: LA-258-2 (antibody, V domains shown)
# VH: QSVKESGGDLVKPEGSLTLTCKASGFSFSNSYYMCWVRQAPGKGLEWIACIYTGSTSGTYYASWVNGRFTISKTPSTTVTLQMTSLTVADTATYFCSRKLTNFNGAYLDLWGPGTLVTISS
# VL: ELVMTQTPSSVEAAVGGTVTIKCQASQSIYSYLAWYQQKPGQPPKVLIYKASTLASGVPSRFKGSGSGTDFTLTISDLECADAATYYCQANNGGSDNNFGGGTEVEIK
# notes: Rabbit monoclonal IgG
# B4: LA-258-3 (antibody, V domains shown)
# VH: B3 VH
# VL: ELVLTQTPASVEAAVGGTVTINCQASQSISNLLAWYQQKPGQPPKVLIYKASTLASGVPSRFKGSGSGTDFTLTISDLECADAATYYCQANNGGSDNNFGGGTEVVVKA
# notes: Rabbit monoclonal IgG
# B5: LA-219 (antibody, V domains shown)
# VH: EQSVESGGGLITPGGTLTLTCTASGFTVTRYYMNWVRQAPGKGLEWIGYIYASSKTYYANWAKGRFTISKTSTTVDLKMTSLTAEDTGTYFCARGGVGNSGLNLDLWGPGTLVTISS
# VL: ELDMTQTPASVSEPVGGTVTIKCQASQSIGSWLAWYQQKPGQPPKLLIYQASRLASGVSSRFGGSGSGTEFTLTISDLECADAATYYCQQAEYSGDVENTFGGGTEVVVK
# notes: Rabbit monoclonal IgG; Called a potential antagonist antibody
# B6: LA-235 (antibody, V domains shown)
# VH: SSSVEESEGRLVTPGTPLTLTCTVSGFSLSSYTMGWVRQAPGEGLEWIGTTSNDGSTYYASWAKGRFTISKTSSTTVDLMMTSLTTEDTATYFCVRGTNIRSLWGPGTLVTISS
# VL: ELVMTQTPASVEAAVGGTVTIKCQASQSIGSNLAWYQQKPGQPPKLLIYLASALASGVSSRFKGSGSGSDFTLTISDLECADAATYYCQCTYGSSNNNNYGDPFGGGTEVEIK
# notes: Rabbit monoclonal IgG; Called an antagonist antibody
# B7: LA-121 (antibody, V domains shown)
# VH: EQSVEESGGRLVTPGTPLTLTCTASGFSLYKYNIQWVRQAPGKGLEYIGASTYAGYTYYASWAIGRVTISRTSTTVDLKMTSPTTEDTATYFCARHIDGDYSGYALWGPGTLVTISS
# VL: ELDLTQTPASVSAAVGGTVTIKCQASQSIDTWFGWYQQKPGQSPKLLIYGASKLASGVPPRFKGSGSGTEFTLTISDLECADAATYYCQNTYYGVRYLGGAFGGGTEVEIK
# notes: Rabbit monoclonal IgG
# B8: LA-259-2 (antibody, V domains shown)
# VH: QSVKESGGRLVTPGTPLTLTCTASGFSLYKYNIQWVRQAPGKGLEYIGASTYAGYTYYASWAKGRVTISRTSTTVDLKMTSPTTEDTATYFCARHIDGDYSGYALWGPGTLVTISS
# VL: ELVMTQTPASVSAAVGGTVTIKCQASQSIGTWFAWYQQKPGQSPKLLIYGPSKLASGVPPRFKGSGSGTEFTLTISDLECDDAATYYCQSNGGSISNGWGSFGGGTEVVVK
# notes: Rabbit monoclonal IgG
# What was measured:
# [1] = molecular target: T1, LAIR1 on LAIR1 reporter cells
# [2] = molecular target: T1, LAIR1 on LAIR1 reporter cells
# [3] = molecular target: T2, human LAIR1 extracellular domain (ECD) …; test: ELISA, LAIR1 ECD coated
# Description: (§1) The inventors then used a concentration titration (0-10 μg/ml) by ELISA to determine the LAIR1 monoclonal antibody (mAbs) binding to human LAIR1 ECD. […] For FIGS. 2-39, X axis indicates the antibody concentrations and Y-axis is binding signals, measured as OD (450 nm). To perform the ELISA assay, LAIR1 ECD recombinant protein was coated on high absorption 96-well plates. Serial diluted (3-fold) LAIR1 mAb was added to the coated/blocked plates and detected using goat anti-rabbit F(ab′)2 conjugated HRP as secondary antibody. All assays were repeated 3 times and the titration curves were fitted using 4-parameter fitting curve using the GraphPad software for EC₅₀ estimation.
# (§2) Serial dilutions of the LAIR1 monoclonal antibodies (IgGs or scFvs fragments), starting from […] and 3-fold titration down for 12 steps, were added to the 96-well plate for binding by incubating 45 minutes at 37° C. with a cover on the assay plate. Then the plates were washed with PBS containing Tween 20 (0.05% concentration) for 3 times and PBS one time. […] Detection was conducted by adding HRP substrate, TMB (ThermoFisher) for 10 minutes, and stopped by adding 50 μl/well of 2N H2504. The plates were read for absorbance at 450 nm using a plate reader (SpectraMax M4, Molecular Devices). Data were collected and graphed using a 4-parameter fitting curve with GrapPad Prism 7 software for EC₅₀ calculation.
# [4] = molecular target: T1, LAIR1 on LAIR1 reporter cells; test: cell-based or functional assay
# [5] = molecular target: T2, human LAIR1 extracellular domain (ECD) …; test: ELISA, LAIR1 ECD coated, mAb titrated, anti-rabbit HRP
# Description: as §1, §2
# [6] = molecular target: T1, LAIR1 on LAIR1 reporter cells; test: cell-based or functional assay
# [7] = molecular target: T1, LAIR1 on LAIR1 reporter cells; test: cell-based or functional assay
# recombinant LAIR1 = molecular target: T3, recombinant LAIR1; test: BLI (Octet), mAb on protein A sensor, recombinant LAIR1 0.1-200 nM, 1:1 fit
# Description: To perform the assay, antibody (30 μg/mL) was loaded to the proteins A sensor for 4 min, followed by a short buffering to establish baseline in kinetics buffer. The loaded sensors were then exposed to a series of recombinant LAIR1 concentrations (0.1-200 nM) for kinetic binding detection. Background subtraction was used to correct the sensor drifting. All experiments were performed with shaking at 1,000 rpm. Background wavelength shifts were measured from reference sensors that were loaded only with antibody. ForteBio's data analysis software was used to fit the data to a 1:1 binding model to extract an association rate and dissociation rate. The KD was calculated using the ratio […] using ForteBio's data analysis software 7.0.
Molecule,"GFP+% of LAIR1 reporter cells, K562 coculture, no Ab (row Collagen I-ctrl) [1]","GFP+% of LAIR1 reporter cells, collagen I coated, no Ab (row collagen I-ctrl) [2]",EC50 (read off the curve) [3],"GFP+% of LAIR1 reporter cells, collagen I coated, soluble Ab [4]",EC50 [5],"GFP+ of LAIR1 reporter cells, Abs coated [6]","GFP+ of LAIR1 reporter cells, Collagen I coated [6]","GFP+ of LAIR1 reporter cells, Collagen I coated + K562 [6]","GFP+% of LAIR1 reporter cells, collagen I coated, soluble Ab and K562 cells [7]",Kd (recombinant LAIR1),koff (recombinant LAIR1),kon (recombinant LAIR1)
collagen I (ligand),42.5%,31.3%,–,–,–,–,–,–,–,–,–,–
B1,–,–,~0.02 µg/mL,50.4%,0.12 nM,> 40%,> 40%,> 40%,24.6%,–,–,–
B2,–,–,~0.02 µg/mL,63.2%,0.04 nM,> 40%,> 40%,> 40%,18.7%,–,–,–
B3,–,–,~0.05 µg/mL,–,0.37 nM,–,–,–,–,0.0337 nM,8.02e-06 s⁻¹,238000 M⁻¹ s⁻¹
B4,–,–,~0.05 µg/mL,–,0.3 nM,–,–,–,–,5.58 nM,0.00222 s⁻¹,397000 M⁻¹ s⁻¹
B5,–,–,~0.008 µg/mL,0.924%,0.06 nM,–,< 5%,< 5%,2.11%,–,–,–
B6,–,–,~0.01 µg/mL,5.76%,0.03 nM,> 40%,< 5%,–,19%,–,–,–
B7,–,–,~0.03 µg/mL,1.11%,0.21 nM,–,–,–,0.891%,0.127 nM,2.41e-05 s⁻¹,190000 M⁻¹ s⁻¹
B8,–,–,~0.03 µg/mL,–,0.22 nM,–,–,–,–,0.196 nM,4.23e-05 s⁻¹,216000 M⁻¹ s⁻¹
